Experimental data taken from patent publication US20190328867A1 (EMORY UNIVERSITY, published 2019).

T1: varicella-zoster virus glycoprotein H (varicella-zoster virus, UniProt P09260 18-841, limits assumed)
T1 sequence (looked up): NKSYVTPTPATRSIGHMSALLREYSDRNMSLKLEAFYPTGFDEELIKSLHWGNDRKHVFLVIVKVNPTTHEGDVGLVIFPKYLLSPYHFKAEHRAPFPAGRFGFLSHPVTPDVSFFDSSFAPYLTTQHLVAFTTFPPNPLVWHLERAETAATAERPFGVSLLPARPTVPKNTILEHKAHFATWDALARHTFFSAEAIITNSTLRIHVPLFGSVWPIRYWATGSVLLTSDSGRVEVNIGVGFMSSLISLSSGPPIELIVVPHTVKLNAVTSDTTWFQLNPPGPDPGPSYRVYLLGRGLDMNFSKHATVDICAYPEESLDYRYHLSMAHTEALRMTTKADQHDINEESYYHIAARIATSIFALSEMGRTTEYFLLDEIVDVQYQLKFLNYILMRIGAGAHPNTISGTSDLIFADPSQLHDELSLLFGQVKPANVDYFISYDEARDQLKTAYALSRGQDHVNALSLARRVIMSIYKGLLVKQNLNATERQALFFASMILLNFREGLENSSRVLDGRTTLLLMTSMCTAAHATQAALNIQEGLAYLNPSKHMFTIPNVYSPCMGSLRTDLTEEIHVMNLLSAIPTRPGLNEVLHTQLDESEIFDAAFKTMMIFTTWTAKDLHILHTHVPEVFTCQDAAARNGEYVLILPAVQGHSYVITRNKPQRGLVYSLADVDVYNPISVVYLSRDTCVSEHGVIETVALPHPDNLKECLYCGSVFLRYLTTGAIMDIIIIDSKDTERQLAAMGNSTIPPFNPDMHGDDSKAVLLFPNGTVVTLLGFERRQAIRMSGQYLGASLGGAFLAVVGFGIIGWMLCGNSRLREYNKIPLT


Molecular target: T1, varicella-zoster virus glycoprotein H
Test: cell-based or functional assay

Binder | In vitro neutralization IC50 (with complement) [µg/mL] | In vitro neutralization IC50 (without complement) [µg/mL]
RM-2D6 (antibody, IgG1, V domains shown) VH: EVQLVESGGGVVQPGRSLRLSCAASGFMFSSYGMHWVRQAPGKGLEWVAAVSHDGTNDLYADSVKGRFSISRDNSKNTLYLQMNSLRAEDTAVYYCAKTSWARFLEWTFDYWGQGTLVTVSS VL: DIQMTQSPSSLSASVGDRVTITCRASQSINRYLNWYQQKPGKAPKLLIYGASSLQSGVPLRFSGSGSGTDFTLTISSLQPEDFATYYCQQSHSTPTFGQGTRLEIK | 0.03 | 0.23
302-1G9 (antibody, IgG1, V domains shown) VH: QVQLVQSGAEVKKPGASVKVSCEAFGYTFSNYGFTWVRQAPGQGLEWMGWISASNANTKYGQKFRGRVTLTTDTSTSTAYMELRNLGYDDTAMYYCARDRGGSLAMVVGLDHWGQGTLVTVSS VL: DIQMTQSPTSLSASVGDRVTITCRASQSIGGYLNWYQQNPGKAPKLLIYAASTLQRGVPSRFSGGGSGTDFTLTITSLQPEDFATYYCQQCYSAELTFGGGTKVEIK | 0.06 | 0.09
